How the values were obtained:
RON = RON (Homo sapiens, UniProt Q04912); assay: Classification of anti-RON mAbs by activity upon binding to RON; format: cell-based
From the text: Using an advanced living cell immunization method, the present inventors were able to generate mAbs specific only to the RON extracellular domains. Using flow cytometer in conjunction with biological assays, the present inventors characterize our anti-RON mAbs for their specificity and sensitivity. […] This is based on direct binding, ELISA, IHC, Western blotting and other biochemical and biological assays. Moreover, based on their activities upon binding to RON, the present inventors were able to classify the anti-RON mAb into three categories. […] This type of anti-RON mAbs is considered as agnostic antibodies. The representatives are Zt/g4, Zt/c1, Zt/c9, Zt/f1, and Zt/H12. […] The typical examples are Zt/g9 and Zt/c8. […] One example is Zt/f2. The present inventors considered this type of mAb having therapeutic potentials.

[1] = system: Colon cancer HT-29 cell-mediated tumor growth; assay: HT-29 cell-mediated tumor growth in athymic nude mice (Zt/f2); format: in vivo, mouse
From the text: (§1) This sequence is critical in regulating RON maturation and phosphorylation. […] These biochemical features provide the cellular basis for the use of Zt/f2 to inhibit tumor growth in animal model. Repeated administration of Zt/f2 as a single agent into Balb/c mice results in partial inhibition of tumor growth caused by transformed NIH-3T3 cells expressing oncogenic RON160. Colon cancer HT-29 cell-mediated tumor growth in athymic nude mice also was attenuated following Zt/f2 treatment. In both cases, ˜50% inhibition of tumor growth as measured by tumor volume was achieved. […] The present inventors conclude that Zt/f2 is a potential therapeutic mAb capable of inhibiting RON-mediated oncogenesis by colon cancer cells in animal models. The inhibitory effect of Zt/f2 in vivo in combination with chemoagent 5-fluorouracil could represent a novel strategy for future colon cancer therapy.

[2] = system: transformed NIH-3T3 cells expressing oncogenic RON160; assay: Tumor growth by NIH-3T3 cells expressing RON160 in Balb/c mice; format: in vivo, mouse; details: repeated administration, single agent
From the text: as §1

[3] = system: human RON and its oncogenic variants such as RON160; assay: Zt/f2 receptor binding to human RON
From the text: as §1

Sequence of RON (Q04912 25-1400): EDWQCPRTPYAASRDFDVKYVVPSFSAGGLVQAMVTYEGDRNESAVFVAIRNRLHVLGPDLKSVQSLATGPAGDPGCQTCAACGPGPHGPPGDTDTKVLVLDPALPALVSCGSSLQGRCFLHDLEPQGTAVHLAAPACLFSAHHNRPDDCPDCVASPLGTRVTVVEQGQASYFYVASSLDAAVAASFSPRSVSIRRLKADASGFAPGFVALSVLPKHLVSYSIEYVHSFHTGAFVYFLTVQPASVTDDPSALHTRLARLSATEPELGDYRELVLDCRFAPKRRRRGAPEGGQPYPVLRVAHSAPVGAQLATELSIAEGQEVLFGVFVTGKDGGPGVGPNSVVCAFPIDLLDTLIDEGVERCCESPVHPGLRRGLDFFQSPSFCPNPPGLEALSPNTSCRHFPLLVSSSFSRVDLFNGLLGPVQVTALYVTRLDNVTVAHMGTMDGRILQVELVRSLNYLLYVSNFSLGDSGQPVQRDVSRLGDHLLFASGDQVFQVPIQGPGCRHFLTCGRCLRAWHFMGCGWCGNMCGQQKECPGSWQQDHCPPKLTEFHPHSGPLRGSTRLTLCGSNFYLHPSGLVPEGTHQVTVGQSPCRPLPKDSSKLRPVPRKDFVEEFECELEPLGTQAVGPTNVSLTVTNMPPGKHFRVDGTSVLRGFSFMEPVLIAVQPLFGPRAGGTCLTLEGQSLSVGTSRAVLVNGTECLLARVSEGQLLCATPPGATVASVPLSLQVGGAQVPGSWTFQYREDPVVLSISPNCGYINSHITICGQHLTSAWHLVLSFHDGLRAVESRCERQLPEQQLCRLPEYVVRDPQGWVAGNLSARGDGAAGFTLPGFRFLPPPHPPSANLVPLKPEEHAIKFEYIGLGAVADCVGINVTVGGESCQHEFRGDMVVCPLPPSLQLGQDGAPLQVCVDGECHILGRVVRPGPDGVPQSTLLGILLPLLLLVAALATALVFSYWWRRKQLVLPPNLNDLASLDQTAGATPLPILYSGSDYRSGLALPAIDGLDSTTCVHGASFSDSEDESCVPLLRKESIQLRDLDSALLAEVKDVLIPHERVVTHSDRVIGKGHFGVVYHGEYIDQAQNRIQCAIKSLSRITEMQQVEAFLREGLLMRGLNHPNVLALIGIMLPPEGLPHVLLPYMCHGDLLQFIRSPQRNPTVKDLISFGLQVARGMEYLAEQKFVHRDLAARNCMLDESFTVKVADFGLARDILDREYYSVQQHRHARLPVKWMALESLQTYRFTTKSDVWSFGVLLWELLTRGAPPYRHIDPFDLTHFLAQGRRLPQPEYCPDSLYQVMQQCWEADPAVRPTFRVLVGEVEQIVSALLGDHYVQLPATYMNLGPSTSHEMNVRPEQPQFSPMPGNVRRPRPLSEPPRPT

activity upon binding to RON (RON): inhibit RON activation and signaling
competition with ligand macrophage-stimulating protein for binding to RON [3]: did not compete
B1: Zt/f2: mouse IgG2a mAb specific to human RON and its oncogenic variants such as RON160 (antibody, V domains shown)
VH: QVQLQQSGAELAKPGASVKMSCKASGYTFTSYWMHWVKQRPGQGLEWIGYINPSTGYIEYNQNFKDKATLTADKSSSTAYMQLSSLTSEDSAVYYCARSPSHYYGSRYGYFDVWGAGTTVTVSS
VL: QIVLSQSPAILSASPGEKVTMTCRASSSVSYMHWYQQKPGSSPKPWIYATSNLASGVPARFSGSGSGTSYSLTISRVEAEDAATYYCQQWSSNPRTFGGGTKLEIK
inhibition effect on HT-29 cell-mediated tumor growth ([1]; in combination with 5-fluorouracil): ~80%
inhibition of tumor growth as measured by tumor volume ([1]; single agent, athymic nude mice): ~50%
inhibition of tumor growth as measured by tumor volume [2]: ~50%
